Molecular target: CspA (UniProt P0A9X9 1-70)
Experiment: molecular beacon unfolding

Sequence of CspA (P0A9X9 whole entry): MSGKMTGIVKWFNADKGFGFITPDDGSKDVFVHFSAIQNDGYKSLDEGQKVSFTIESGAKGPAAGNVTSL

B1: 78-nt molecular beacon (structured_DNA)
DNA: AGGGTTCTTTGTGGTGTTTTTATCTGTGCTTCCCTATGCACCGCCGACGACAGTCGCTAACCTCTCGCTAAGAACCCT
binding result: binds
